Measured values from patent US20060009452A1, “Therapeutic targeting of PARC/CCL18 and its signaling in pulmonary fibrosis” (priority 2004, published 2006).
Entries after “also recorded” stand apart in the source; their conditions may differ.

Key:
[1] = tested on: ERK1/2; assay: Immunoblotting for phosphorylation of ERK1/2; assay type: cell-based, human; details: lung fibroblasts LF1/LF2 activated with rhPARC
[2] = tested on: lung fibroblasts; assay: Western blotting of fibroblast culture supernatants for collagen type I / α1(I); assay type: cell-based, human
Protocol: Collagen Production Assays. Collagen was quantified as described elsewhere (Atamas S P et al.). Briefly, fibroblasts were cultured with β-aminopropionitrile (Sigma) to prevent collagen cross-linking, and Western blotting assays for collagen were performed using rabbit affinity purified anti-collagen type I antibody (Rockland, Gilbertsville, Pa.). Before electrophoresis, samples were reduced and denatured by boiling in Laemmli buffer containing β-mercaptoethanol. Human purified collagen type I (Southern Biotech, Birmingham, Ala.) was used as a positive control in these assays. The identity of collagen bands was confirmed by sensitivity to pepsin and collagenase (both from Sigma) digestion, as described (Atamas S P et al.). Under these conditions, pro-collagen appears as a single or double band around 175 kDa (Gaidarova S et al., Stefanovic B et al.). Images were collected using a Storm densitometer and band densities analyzed with ImageQuant software (Molecular Dynamics, Sunnyvale, Calif.).
Western blotting assays for collagen were performed using rabbit affinity purified anti-collagen type I antibody (Rockland, Gilbertsville, Pa.). Before electrophoresis, samples were reduced and denatured by boiling in Laemmli buffer containing β-mercaptoethanol. Human purified collagen type I (Southern Biotech, Birmingham, Ala.) was used as a positive control in these assays.
(§1) Collagen was quantified by Western blotting and the identity of collagen bands was confirmed by sensitivity to pepsin and collagenase digestion as described elsewhere in Atamas et al. (Am. J. Respir. Cell. Mol., 29:743-749 (2003)). In these assays, pro-collagen appears as a single or double band with a molecular weight of approximately 175 kDa (4,27,28).

[3] = tested on: mouse fibroblasts; assay: Collagen Western blot in wild-type and Smad3-/- mouse fibroblasts; assay type: cell-based
Protocol: as §1
Transient transfection with 1 μg of Sp1 and Smad3 dominant negative mutant constructs abrogated basal and PARC-stimulated upregulation of collagen production, whereas transfection with 0.2 μg of the constructs inhibited the response to PARC stimulation but not basal collagen production (FIG. 19A,B).

[4] = tested on: Smad3; assay: Smad3 immunoprecipitation and phosphorylation Western blot; assay type: cell-based, human; details: fibroblasts activated with cytokine
Protocol: (§2) To determine if PARC stimulated phosphorylation of Sp1 and Smad3, these factors were immunoprecipitated from lysates of fibroblasts that had been activated with recombinant human PARC for up to 24 hours, and the levels of their phosphorylation were tested in Western blotting assays using anti-phosphoserine and anti-phospho-Smad2/3 antibodies. Equal loading was controlled by stripping the membranes and re-developing them with anti-Sp1, anti-Smad3 and anti-Smad2/3 antibodies (FIG. 17).
(§3) Preparation of fibroblast lysates, immunoprecipitation of Sp1 and Smad2/3, normalization of protein concentration in the samples with BioRad assays, electrophoretic separation, Western blotting, membrane stripping and re-development with different antibodies were performed as described in Atamas et al. (Am. J. Respir. Cell. Mol., 29:743-749 (2003); J. Immunol. 168: 1139-1145 (2002); and Arthritis Rheum., 42:1168-1178 (1999)), which are hereby incorporated by reference. Rabbit antibodies for total Smad2/3 and Sp1 were from Upstate (Waltham, Masss.). Antiphospho-Smad2/3 antibody and goat antibody for total Smad3 were from Santa Cruz Biotechnology (Santa Cruz, Calif.), as was anti-gp130 antibody used to confirm equal loading of the samples. Antiphosphoserine antibody was from Biomol (Plymouth Meeting, Pa.).

[5] = tested on: lung and dermal fibroblast lines; assay: CellTiter AQueous 96 fibroblast proliferation assay; assay type: cell-based, human; details: for maximum increase in fibroblast proliferation over non-stimulated control: Days 7 and 8, rhPARC 1-3,000 ng/ml
Protocol: Cell Proliferation Assays. For CellTiter AQueous 96 Non-Radioactive Cell Proliferation Assay (Promega, Madison, Wis.), fibroblasts were plated in low-serum medium at 2×10^3 cells/well in 96-well flat-bottom tissue culture plates (Costar) in 0.2-ml cultures and stimulated with increasing concentrations of rhPARC in quadruplicates. Low-serum tissue culture medium alone was the negative control. The Cell-Titer proliferation assay was performed according to the manufacturer's instructions, after the fibroblasts were incubated with test substances for 3-8 d. Data were expressed as mean OD490±SD of quadruplicate cultures and analyzed using one-way ANOVA with post hoc testing.

[6] = tested on: Sp1; assay: Sp1 immunoprecipitation and anti-phosphoserine Western blot; assay type: cell-based, human; details: fibroblasts activated with rhPARC up to 24 hours
Protocol: as §2, §3

[7] = tested on: Smad3/4; assay: EMSA of nuclear lysates with Smad3/4 probe; assay type: cell-based, human
[8] = tested on: TGF-β1 mRNA; assay: Real-time PCR for TGF-β mRNA; assay type: cell-based, human; details: LF1 and LF4, 300 ng/ml rhPARC
Protocol: Real-time PCR Quantification of Steady-State mRNA Levels. Total RNA was purified from fibroblast cultures using Trizol reagent (Invitrogen, Carlsbad, Calif.) following the manufacturer's recommendations. First-strand cDNA was synthesized in a 20-μl reaction mixture containing 1 μg of total RNA, 50 mM Tris HCl (pH 8.3), 75 mM KCl, 3 mM MgCl2, 0.5 mM of each dNTP, 1 μM of random hexamer primers, and 400 units of Moloney murine leukemia virus RT (Invitrogen). The reaction mixture was incubated at 37° C. for 60 minutes, then heated at 95° C. for 5 minutes. Real-time PCR was performed on a LightCycler system (Roche, Indianapolis, Ind.). The primers, PCR protocol, and product quantification for the internal control 18S ribosomal RNA were exactly as reported previously (Schmittgen T D et al.). All other primers and hybridization probes were designed and prepared by TIB Molbiol (Adelphia, N.J.). […] The following PCR conditions were used: activation at 95° C. for 10 min, followed by 35 cycles of denaturation at 95° C. for 3 s, primer annealing at 50° C. for 5 s, fluorescence readout (F12/F11) at 50° C., and extension at 72° C. for 15 s. Fold difference in gene expression relative to 18S rRNA between treated and untreated cultures was calculated using the 2-ΔΔCT method (Livak K J et al.).

B1: rhPARC: Recombinant human pulmonary and activation-regulated chemokine (CC chemokine CCL18), purchased from R&D Systems and Cell Sciences (protein)
chain: AQVGTNKELCCLVYTSWQIPQKFIVDYSETSPQCPKPGVILLTKRGRQICADPNKKWVQKYISDLKLNA
B1 was tested, and the “phosphorylation of ERK1/2” value [1] was “increased; also recorded: activated”, the “concentration causing detectable stimulation of collagen production” value [2] was “below 300 ng/ml” and the “collagen production, dose-response” value ([2]; LF1 and LF4, 30 ng/ml and 300 ng/ml rhPARC) was “significant increase in collagen production”. For the same molecule, the “increase in collagen production over control non-treated cells” value ([2]; LF1 and LF4, 3, 6 and 12 h of activation) was at most 1.2±0.2 fold, the “combined density of procollagen bands, fold higher than non-stimulated control” value ([2]; LF2 cells, 300 ng/ml rhPARC, 48 h) was 4.2 fold and the “increase in densities of the collagen bands relative to the control culture” value ([2]; LF4, 300 ng/ml rhPARC, 24 h) was 4.4. For the same molecule, the “increase in densities of the collagen bands relative to the control culture” value ([2]; LF4, 300 ng/ml rhPARC, 48 h) was 3.2, the “increase in collagen production, densitometry at shorter non-saturating exposure” value ([2]; LF4, 300 ng/ml rhPARC, 72 h) was 3.4 fold and the “increase in densities of the collagen bands relative to the control culture” value ([2]; LF4, 300 ng/ml rhPARC, 72 h, bands saturated) was 1.3. For the same molecule, the “combined density of procollagen bands, fold higher than non-stimulated control” value ([2]; LF4 cells, 100 ng/ml rhPARC, 48 h) was 3.6 fold, the “collagen production response to PARC stimulation” value ([3]; Smad3-/- mouse fibroblasts) was “did not” and the “collagen production response to PARC stimulation” value ([3]; wild-type mouse fibroblasts) was “responded to PARC stimulation by upregulating collagen production”. For the same molecule, the “phosphorylation of immunoprecipitated Smad3” value [4] was “No changes in phosphorylation”, the “maximum increase in fibroblast proliferation over non-stimulated control” value ([5]; dermal lines) was 45-50% and the “maximum increase in fibroblast proliferation over non-stimulated control” value ([5]; lung lines) was 20-25%. For the same molecule, the “increase in fibroblast proliferation” value ([5]; summary statement) was 25-50%, the “level of Sp1 phosphorylation” value [6] was “consistently increased” and the “density of the specific Smad3 band relative to the density at time 0” value ([7]; LF1, LF2, LF4, rhPARC-stimulated samples) was 0.9-1.2 fold. For the same molecule, the “DNA-binding activity of Smad3/4 (EMSA)” value ([7]; after activation with PARC) was “No increase; also recorded: but not Smad3/4” and the “steady-state levels of TGF-β mRNAs, treated versus control” value [8] was “no difference in TGF-β1 mRNA levels”.
